Test results taken from article PMC7055391.

Target: Cqm1 receptor protein (functional form; residues 23–560) (Culex quinquefasciatus)
Assay: small-angle neutron scattering (SANS); single proteins in 100% D2O buffer C (25 mM HEPES pH 7.5, 25 mM NaCl), 25°C; Cqm1 3.3 mg/ml, hBinB 3.3 mg/ml; ab initio IFT modelling and fits against crystal structures

Substance: Cqm1 receptor protein (functional form; residues 23–560)
- stoichiometry N: 2
